Laboratory results as given in patent US20120094377A1 (EVROGEN JSC, published 2012).
Positions count from the first letter of the chain named.

B1: mKate2.7C (other)
chain: MVSELIKENMPMKLYMEGTVNNHHFKCTSEGEGKPYEGTQTMRIKVVEGGPLPFAFDILATSFMYGSRTFIKHPPGIPDFFKQSFPEGFTWERVTTYEDGGVLTATQDTSLQDGCLIYNVKVRGVNFPANGPVMQKKTLGWEASTETMYPADGGLEGACDMALKLVGGGHLICNLETTYRSKKPATNLKMPGVYNVDHRLERIKEADDETYVEQHEVAVARYSTGGAGDGGK
notes: A vector His tag from pQE30 is probably present but not described; It was tested for self-association by FPLC
B2: mKate2.5 (other)
chain: B1 chain with P11H, R68K, K72N, P75Q, V122I, M148L, T186K, H198R, D208N
notes: as for B1
B3: mKate2 protein (other)
chain: MVSELIKENMHMKLYMEGTVNNHHFKCTSEGEGKPYEGTQTMRIKAVEGGPLPFAFDILATSFMYGSKTFINHTQGIPDFFKQSFPEGFTWERVTTYEDGGVLTATQDTSLQDGCLIYNVKIRGVNFPSNGPVMQKKTLGWEASTETLYPADGGLEGRADMALKLVGGGHLICNLKTTYRSKKPAKNLKMPGVYYVDRRLERIKEADKETYVEQHEVAVARYCDLPSKLGHR
notes: Engineered far-red fluorescent protein derived from Entacmaea quadricolor eqFP578; The partner is a second copy of the same protein (self-association / dimerization seen by FPLC)

Columns and labels:
[1] = target: the molecule itself; assay: FPLC gel filtration, Superdex 200 (self-association)
Description: Gel filtration chromatography was performed using a Superdex 200 10/300 GL column (Amersham Biosciences), equilibrated with 40 mm Tris-HCl (pH 7.5), 150 mm NaCl buffer at a flow rate of 0.4 ml/min. Apparent molecular masses were calculated by interpolating an elution volume versus log (molecular mass) calibration curve using ferritin (440 kDa), catalase (232 kDa), aldolase (158 kDa), BSA (67 kDa), ovalbumin (43 kDa), chymotrypsinogen A (25 kDa), and ribonuclease A (13.7 kDa). 200 uL of each fluorescent protein at concentration 1 mg/ml were loaded.

[2] = target: the molecule itself; assay: FPLC gel filtration of purified protein (homodimerization)

Protein | binding result [1] | binding result [2]
B1 | no binding (tested: >1 mg/ml) | –
B2 | no binding (tested: >1 mg/ml) | –
B3 | – | binds
